Values quoted from earlier work in publication PMC3621282.

Target: VEGFR-2 (Homo sapiens) (UniProt P35968)
Sequence of UniProt P35968 (P35968 20-1356): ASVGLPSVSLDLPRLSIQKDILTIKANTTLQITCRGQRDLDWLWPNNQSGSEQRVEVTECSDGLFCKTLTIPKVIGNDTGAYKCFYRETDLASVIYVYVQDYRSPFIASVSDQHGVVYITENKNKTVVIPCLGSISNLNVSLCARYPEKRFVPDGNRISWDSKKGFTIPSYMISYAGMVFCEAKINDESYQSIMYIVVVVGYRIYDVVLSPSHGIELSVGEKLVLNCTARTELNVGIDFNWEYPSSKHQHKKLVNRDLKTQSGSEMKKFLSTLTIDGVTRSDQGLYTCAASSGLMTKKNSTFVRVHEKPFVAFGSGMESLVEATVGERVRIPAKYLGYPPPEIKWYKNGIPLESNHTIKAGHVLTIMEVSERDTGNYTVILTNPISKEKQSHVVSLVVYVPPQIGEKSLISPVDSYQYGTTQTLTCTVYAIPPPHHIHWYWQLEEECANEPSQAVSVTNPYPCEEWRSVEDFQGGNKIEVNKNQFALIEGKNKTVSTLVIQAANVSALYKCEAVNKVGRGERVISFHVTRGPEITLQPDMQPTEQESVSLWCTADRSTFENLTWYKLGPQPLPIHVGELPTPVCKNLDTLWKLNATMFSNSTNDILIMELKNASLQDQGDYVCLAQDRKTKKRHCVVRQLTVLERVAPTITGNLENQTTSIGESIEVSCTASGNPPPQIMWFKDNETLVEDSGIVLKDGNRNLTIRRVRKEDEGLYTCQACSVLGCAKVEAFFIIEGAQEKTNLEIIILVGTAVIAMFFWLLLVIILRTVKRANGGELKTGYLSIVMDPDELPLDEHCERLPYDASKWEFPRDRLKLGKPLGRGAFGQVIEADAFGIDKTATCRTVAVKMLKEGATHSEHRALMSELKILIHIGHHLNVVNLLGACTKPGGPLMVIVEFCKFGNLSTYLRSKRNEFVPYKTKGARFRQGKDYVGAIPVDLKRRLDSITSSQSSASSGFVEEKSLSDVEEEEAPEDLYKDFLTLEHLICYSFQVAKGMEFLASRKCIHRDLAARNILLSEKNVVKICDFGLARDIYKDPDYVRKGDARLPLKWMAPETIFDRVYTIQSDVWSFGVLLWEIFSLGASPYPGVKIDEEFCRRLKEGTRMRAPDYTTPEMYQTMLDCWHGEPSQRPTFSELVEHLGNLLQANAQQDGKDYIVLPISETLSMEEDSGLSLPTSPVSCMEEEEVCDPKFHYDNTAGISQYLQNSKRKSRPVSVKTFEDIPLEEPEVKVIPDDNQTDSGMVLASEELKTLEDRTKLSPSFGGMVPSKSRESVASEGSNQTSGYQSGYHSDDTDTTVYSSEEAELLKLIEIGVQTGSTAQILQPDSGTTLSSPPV

Question: For VEGF (from UniProt P15692), which Kd is on record?
Answer: 0.1 nM
